Publication PMC6642264, “Hydrophobic recognition allows the glycosyltransferase UGT76G1 to catalyze its substrate in two orientations” (Nature Communications, 2019)
One block for each molecule: values may come before it.

Columns and labels:
UGT76G1 [1] = target: T1, UGT76G1 (Stevia rebaudiana, UniProt Q6VAB4); assay: X-ray crystal structure; assay type: binding
T1 construct: synthetic gene in pET21a (NdeI/XhoI), C-terminal hexa-histidine tag, E. coli BL21 (DE3), monomer
T1 sequence (Q6VAB4 1-458): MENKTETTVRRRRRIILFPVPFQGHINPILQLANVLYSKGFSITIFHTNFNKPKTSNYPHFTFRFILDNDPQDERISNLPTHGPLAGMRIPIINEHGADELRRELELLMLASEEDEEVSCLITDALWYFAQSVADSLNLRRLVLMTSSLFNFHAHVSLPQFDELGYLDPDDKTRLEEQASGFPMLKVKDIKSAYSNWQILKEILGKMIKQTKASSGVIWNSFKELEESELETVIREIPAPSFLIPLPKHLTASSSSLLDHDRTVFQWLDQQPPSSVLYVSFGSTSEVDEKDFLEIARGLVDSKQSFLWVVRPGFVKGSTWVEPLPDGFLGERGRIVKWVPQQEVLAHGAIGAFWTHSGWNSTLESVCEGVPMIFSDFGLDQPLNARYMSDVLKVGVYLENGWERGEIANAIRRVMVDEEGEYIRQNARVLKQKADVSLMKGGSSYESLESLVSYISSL

UGT76G1 [2] = target: T2, UGT76G1 (Stevia rebaudiana, UniProt Q6VAB4, H25A); assay: X-ray crystal structure; assay type: binding; details: sodium citrate pH 5.4, PEG 4000; 1 mM UDP
T2 construct: synthetic gene in pET21a (NdeI/XhoI), C-terminal hexa-histidine tag, E. coli BL21 (DE3), monomer
T2 sequence (Q6VAB4 whole entry H25A): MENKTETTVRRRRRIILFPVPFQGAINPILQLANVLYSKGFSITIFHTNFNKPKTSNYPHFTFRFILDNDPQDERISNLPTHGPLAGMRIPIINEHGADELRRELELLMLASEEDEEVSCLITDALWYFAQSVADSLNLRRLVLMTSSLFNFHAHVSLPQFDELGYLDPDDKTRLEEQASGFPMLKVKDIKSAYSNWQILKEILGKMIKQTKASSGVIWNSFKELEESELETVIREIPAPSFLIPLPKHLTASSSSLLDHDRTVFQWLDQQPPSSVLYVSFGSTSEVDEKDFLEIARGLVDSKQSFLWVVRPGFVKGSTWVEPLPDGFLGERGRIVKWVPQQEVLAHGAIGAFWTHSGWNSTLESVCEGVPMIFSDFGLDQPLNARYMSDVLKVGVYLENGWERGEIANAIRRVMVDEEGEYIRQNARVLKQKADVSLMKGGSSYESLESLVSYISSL

[3] = substrate: C=C1C[C@@]23CC[C@H]4[C@@](C)(CCC[C@@]4(C)C(=O)O[C@@H]4O[C@H](CO)[C@@H](O)[C@H](O)[C@H]4O)[C@@H]2CC[C@]1(O[C@@H]1O[C@H](CO)[C@@H](O)[C@H](O)[C@H]1O)C3; assay: UDP-Glo glycosyltransferase assay, Michaelis-Menten fit; assay type: biochemical, Stevia rebaudiana; details: UDPG 100 μM; transfer at R1 (initial rate, <10% consumption)
Excerpt: (§1) UDP-Glo glycosyltransferase assay, Michaelis-Menten fit on UGT76G1

[4] = substrate: C=C1C[C@@]23CC[C@H]4[C@@](C)(CCC[C@@]4(C)C(=O)O)[C@@H]2CC[C@]1(O[C@@H]1O[C@H](CO)[C@@H](O)[C@H](O)[C@H]1O[C@@H]1O[C@H](CO)[C@@H](O)[C@H](O)[C@H]1O)C3; assay: as above; assay type: biochemical, Stevia rebaudiana; details: UDPG 100 μM; transfer at R1
Excerpt: as §1

[5] = substrate: C=C1C[C@@]23CC[C@H]4[C@@](C)(CCC[C@@]4(C)C(=O)O[C@@H]4O[C@H](CO)[C@@H](O)[C@H](O)[C@H]4O[C@@H]4O[C@H](CO)[C@@H](O)[C@H](O)[C@H]4O)[C@@H]2CC[C@]1(O[C@@H]1O[C@H](CO)[C@@H](O)[C@H](O)[C@H]1O[C@@H]1O[C@H](CO)[C@@H](O)[C@H](O)[C@H]1O)C3; assay: as above; assay type: biochemical, Stevia rebaudiana; details: UDPG 100 μM; transfer at R1 (initial rate, <10% consumption)
Excerpt: as §1

[6] = substrate: O=c1ccn([C@@H]2O[C@H](CO[P@@](=O)(O)O[P@@](=O)(O)O[C@H]3O[C@H](CO)[C@@H](O)[C@H](O)[C@H]3O)[C@@H](O)[C@H]2O)c(=O)[nH]1; assay: as above; assay type: biochemical, Stevia rebaudiana; details: sugar donor; acceptor STB 50 μM
Excerpt: as §1

purified protein [7] = substrate: C=C1C[C@@]23CC[C@H]4[C@@](C)(CCC[C@@]4(C)C(=O)O[C@@H]4O[C@H](CO)[C@@H](O)[C@H](O)[C@H]4O)[C@@H]2CC[C@]1(O[C@@H]1O[C@H](CO)[C@@H](O)[C@H](O[C@@H]2O[C@H](CO)[C@@H](O)[C@H](O)[C@H]2O)[C@H]1O[C@@H]1O[C@H](CO)[C@@H](O)[C@H](O)[C@H]1O)C3; assay: purified protein; details: UDPG 100 μM; transfer at R2
purified protein [8] = substrate: C=C1C[C@@]23CC[C@H]4[C@@](C)(CCC[C@@]4(C)C(=O)O[C@@H]4O[C@H](CO)[C@@H](O)[C@H](O)[C@H]4O)[C@@H]2CC[C@]1(O[C@@H]1O[C@H](CO)[C@@H](O)[C@H](O)[C@H]1O[C@@H]1O[C@H](CO)[C@@H](O)[C@H](O)[C@H]1O)C3; assay: purified protein; details: UDPG 100 μM; transfer at R1 (initial rate, <10% consumption)

X-ray crystal structure (UGT76G1 [1]; ternary complex with UDP, bound at active site, second remote molecule called artifact): the wild type with UDP and Rubu
Molecule: C=C1C[C@@]23CC[C@H]4[C@@](C)(CCC[C@@]4(C)C(=O)O[C@@H]4O[C@H](CO)[C@@H](O)[C@H](O)[C@H]4O)[C@@H]2CC[C@]1(O[C@@H]1O[C@H](CO)[C@@H](O)[C@H](O)[C@H]1O)C3 [Rubu]

Molecule: O=c1ccn([C@@H]2O[C@H](COP(=O)(O)OP(=O)(O)O)[C@@H](O)[C@H]2O)c(=O)[nH]1 [UDP]
X-ray crystal structure (UGT76G1 [2]): both the wild type and H25A mutant of UGT76G1 with UDP
X-ray crystal structure (UGT76G1 [1]; sodium citrate pH 5.4, PEG 4000, 1 mM UDP): both the wild type and H25A mutant of UGT76G1 with UDP

B1: UGT76G1 (Stevia rebaudiana) (protein)
chain: T1 sequence (Q6VAB4 1-458)
notes: synthetic gene in pET21a (NdeI/XhoI), C-terminal hexa-histidine tag, E. coli BL21 (DE3), monomer
Km [3]: 54.4 ± 4.0 µM
kcat [3]: 0.0983 ± 0.00167 s⁻¹
kcat/Km [3]: 1800 M⁻¹ s⁻¹
Km [4]: 4.8 ± 0.4 µM
kcat [4]: 0.08 ± 0.00167 s⁻¹
kcat/Km [4]: 16500 M⁻¹ s⁻¹
Km [5]: 9.2 ± 0.7 µM
kcat [5]: 0.355 ± 0.00833 s⁻¹
kcat/Km [5]: 38600 M⁻¹ s⁻¹
Km [6]: 5.6 ± 0.4 µM
kcat [6]: 0.0683 ± 0.00167 s⁻¹
kcat/Km [6]: 12400 M⁻¹ s⁻¹
Km (purified protein [7]): 243.4 ± 28.1 µM
kcat (purified protein [7]): 0.002 s⁻¹
kcat/Km (purified protein [7]): 8 M⁻¹ s⁻¹
Km (purified protein [8]): 25.5 ± 3.4 µM
kcat (purified protein [8]): 0.697 s⁻¹
kcat/Km (purified protein [8]): 27300 M⁻¹ s⁻¹
